According to US6689574B1, “Assays for nuclear receptor agonists and antagonists using fluorescence resonance energy transfer” (Merck & Co., Inc., priority 1997, dated 2004):

B2: biotin-labeled hPPARγ1LBD (human PPARγ1 ligand binding domain, amino acids 176-478, cleaved free of GST) (receptor)
chain: SHNAIRFGRIAQAEKEKLLAEISSDIDQLNPESADLRQALAKHLYDSYIKSFPLTKAKARAILTGKTTDKSPFVIYDMNSLMMGEDKIKFKHITPLQEQSKEVAIRIFQGCQFRSVEAVQEITEYAKSIPGFVNLDLNDQVTLLKYGVHEIIYTMLASLMNKDGVLISEGQGFMTREFLKSLRKPFGDFMEPKFEFAVKFNALELDDSDLAIFIAVIILSGDRPGLLNVKPIEDIQDNLLQALELQLKLNHPESSQLFAKLLQKMTDLRQIVTEHVQLLQVIKKTETDMSLHPLLQEIYKDLY
modifications: biotinylated with Sulfo-NHS-LC-Biotin to a biotin:hPPARγ1LBD ratio of 3:1; sites not stated
notes: Made from pGEX-KG as a GST fusion and cleaved free of GST; In the assay it carried streptavidin-labeled XL665 through the biotin; also called biotin-hPPARγ1LBD
B3: Eu3+K-labeled hCBP1-113 (NH2-terminal amino acids 1-113 of human CBP, cleaved from GST with thrombin, directly labeled with europium cryptate) (other)
chain: MAENLLDGPPNPKRAKLSSPGFSANDSTDFGSLFDLENDLPDELIPNGGELGLLNSGNLVPDAASKHKQLSELLRGGSGSSINPGIGNVSASSPVQQGLGGQAQGQPNSANMA
modifications: directly labeled with europium cryptate (Eu3+K); labeled residues not stated
notes: Made as a GST fusion in E. coli (pGEX) and cleaved with thrombin; The preparation gave two bands, 12 kd (expected) and 10 kd (likely a premature termination product)

Tests used:
PPARγ1LBD = PPARγ1LBD (Homo sapiens, UniProt P37231); experiment: Binding constant for hCBP/PPARγ1LBD interaction by FRET competition with non-biotinylated hCBP1-453 (FIG. 6); set-up: amino acids 176-478 of PPARγ1; made in house; host or cells: E. coli (DH5α); details: saturating PPARγ agonist (10 μM BRL49653); derived from FIG. 6; read-out: Kd for the interaction between hCBP1-453 and PPARγ1LBD
Chain of PPARγ1LBD (P37231 204-505): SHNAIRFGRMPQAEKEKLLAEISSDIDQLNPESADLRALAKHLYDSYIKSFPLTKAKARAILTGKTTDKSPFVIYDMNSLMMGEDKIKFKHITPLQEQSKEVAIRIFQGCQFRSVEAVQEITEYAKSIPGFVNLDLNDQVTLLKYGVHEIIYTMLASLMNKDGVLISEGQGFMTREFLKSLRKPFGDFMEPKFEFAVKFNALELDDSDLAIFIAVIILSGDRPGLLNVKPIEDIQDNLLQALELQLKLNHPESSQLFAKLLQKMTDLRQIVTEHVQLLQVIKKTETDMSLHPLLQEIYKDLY
Chain of PPARγ1LBD (Q92793 1-453 partner): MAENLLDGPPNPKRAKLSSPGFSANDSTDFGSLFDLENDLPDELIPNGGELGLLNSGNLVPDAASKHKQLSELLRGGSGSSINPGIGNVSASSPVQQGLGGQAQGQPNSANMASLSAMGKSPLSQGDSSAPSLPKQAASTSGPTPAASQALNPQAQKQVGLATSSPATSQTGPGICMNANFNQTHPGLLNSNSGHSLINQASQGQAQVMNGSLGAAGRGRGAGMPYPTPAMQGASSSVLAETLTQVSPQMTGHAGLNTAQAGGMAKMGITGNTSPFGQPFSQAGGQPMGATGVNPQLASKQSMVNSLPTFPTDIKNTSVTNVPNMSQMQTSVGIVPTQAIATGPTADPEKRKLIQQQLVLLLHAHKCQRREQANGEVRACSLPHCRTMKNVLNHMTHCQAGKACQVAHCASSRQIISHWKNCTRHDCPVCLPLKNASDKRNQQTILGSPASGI
Experimental: The above-described assay can also be used to characterize the interaction between nuclear receptors with co-activators as, e.g., by determining the binding constant for that interaction. […] Saturating amounts of PPARγ agonist (10 μM BRL49653) were used. Increasing concentrations of non-biotinylated hCBP1-453 were used to titrate away biotin-hCBP-PPARγ1LBD complex and decrease the fluorescence energy transfer. A Kd of 300 nM for the interaction between hCBP1-453 and PPARγ1LBD can be derived from the results illustrated in FIG. 6 and this Kd (300 nM) is a measurement of the affinity between CBP and PPARγ.

[1] = biological target: non-biotinylated hCBP1-453 (NH2-terminal amino acids 1-453 of human CBP, cleaved from GST) (human, UniProt Q92793 1-453); experiment: FRET competition: increasing non-biotinylated hCBP1-453 displaces biotin-hCBP from PPARγ1LBD, saturating agonist (10 µM BRL49653)
Experimental: The above-described assay can also be used to characterize the interaction between nuclear receptors with co-activators as, e.g., by determining the binding constant for that interaction. […] Saturating amounts of PPARγ agonist (10 μM BRL49653) were used.

[2] = biological target: B3; experiment: FRET, Eu3+K-hCBP1-113 + biotin-hPPARγ1LBD + SA-XL665, PBS
[3] = biological target: B2; experiment: FRET, same format without agonist (0.1% DMSO vehicle), PBS; background control
[4] = biological target: B2; experiment: FRET, Eu3+K-hCBP1-113 + biotin-hPPARγ1LBD + SA-XL665, 1 µM AD5075, HEPES + 0.05% NP40
[5] = biological target: B2; experiment: FRET, same format without agonist (vehicle), HEPES + 0.05% NP40; background control
[6] = biological target: B2; experiment: FRET, Eu3+K-hCBP1-113 (100 nM) + biotin-hPPARγ1LBD (100 nM) + SA-XL665 (100 nM), 1 µM AD5075, PBS
[7] = biological target: B2; experiment: FRET, experiment 3 format, HEPES + 0.05% NP40
Description: (§1) In order to get an even better signal-noise ratio, the above-described format was modified slightly for experiment 3.

[8] = biological target: B2; experiment: FRET, GST-hCBP1-113 + Eu3+K anti-GST antibody + biotin-hPPARγ1LBD (100 nM) + SA-XL665 (500 nM), 1 µM AD5075, HEPES + 0.05% NP40
Description: as §1

## hCBP1-453: NH2-terminal 1-453 amino acids of human CBP, expressed in E. coli as GST fusion and cleaved
PPARγ1LBD
  Kd: 300 nM

B1: GST-hPPARγ1LBD (glutathione S-transferase fused to amino acids 176-478 of human PPARγ1) (receptor)
chain: SHNAIRFGRIAQAEKEKLLAEISSDIDQLNPESADLRQALAKHLYDSYIKSFPLTKAKARAILTGKTTDKSPFVIYDMNSLMMGEDKIKFKHITPLQEQSKEVAIRIFQGCQFRSVEAVQEITEYAKSIPGFVNLDLNDQVTLLKYGVHEIIYTMLASLMNKDGVLISEGQGFMTREFLKSLRKPFGDFMEPKFEFAVKFNALELDDSDLAIFIAVIILSGDRPGLLNVKPIEDIQDNLLQALELQLKLNHPESSQLFAKLLQKMTDLRQIVTEHVQLLQVIKKTETDMSLHPLLQEIYKDLY
notes: Uncleaved fusion, detected in the assay by Eu3+K-labeled anti-GST antibody; not shown: glutathione S-transferase (GST) of the pGEX-KG vector (Guan & Dixon 1991); pGEX-KG linker between GST and the LBD
[1]
  Kd: 300 nM

## B2
[2]
  binding result: binds

## B3
[3]
  Emission ratio with vehicle: 1070 665 nm/620 nm ratio x 10,000
[4]
  Emission ratio with AD5075: 967 665 nm/620 nm ratio x 10,000
[5]
  Emission ratio with vehicle: 617 665 nm/620 nm ratio x 10,000
[6]
  Emission ratio with AD5075: 1130 665 nm/620 nm ratio x 10,000

B4: GST-hCBP1-113 (glutathione S-transferase fused to amino acids 1-113 of human CBP) (other)
chain: MAENLLDGPPNPKRAKLSSPGFSANDSTDFGSLFDLENDLPDELIPNGGELGLLNSGNLVPDAASKHKQLSELLRGGSGSSINPGIGNVSASSPVQQGLGGQAQGQPNSANMA
notes: Uncleaved fusion, detected in the assay by Eu3+K-labeled goat anti-GST antibody (Pharmacia 27-4577-01); also called GST-CBP fusion protein; not shown: glutathione S-transferase (GST) of the pGEX expression vector (Pharmacia Biotech); pGEX linker with thrombin site between GST and CBP
[7]
  signal-noise ratio (with AD5075 against without): 2 fold
[5]
  Emission ratio with vehicle: 536 665 nm/620 nm ratio x 10,000
[8]
  Emission ratio with AD5075: 1080 665 nm/620 nm ratio x 10,000
